Reference: patent US20260265403A1 (TJ BIOPHARMA SHANGHAI, published 2026)

B1: 69-D5G10, IgG4, Kappa (antibody, V domains shown)
VH: EVKLEESGGGLVQPGGSMKLSCVVSGLTFSNHWMNWVRQSPEKGLEWVAQIQLKSDNYATRFAESVKGRFTISRDDSKSDVYLQMNNLRTEDTGIYYCTTGTDYWGQGTTLTVSS
VL: not shown
B2: 69-D5G10, IgG1, Kappa (antibody, V domains shown)
VH: EVKLEESGGGLVQPGGSMKLSCVVSGLTFSNHWMNWVRQSPEKGLEWVAQIQLKSDNYATRFAESVKGRFTISRDDSKSDVYLQMNNLRTEDTGIYYCTTGTDYWGQGTTLTVSS
VL: not shown
B3: 59-G9D7, IgG1, Kappa (antibody, V domains shown)
VH: QVQLQQPGADLVKPGASVKLSCKASGYTVTTYWMHWVRQRPGRGLEWIGRIDPNSGETKYSEKFKNKATLTVDRPSSTAYMQLSSLTFEDSAVYFCAIYYYLNNFLFDYWGQGTTLTVSS
VL: ENVLTQSPAIMSASPGEKVTMTCRASSSVSSSYLHWYQKKSGASPKLWIYSTSNLASGVPARFSGSGSGTSYSLTISSVEAEDAATYYCQQYSGYPLTFGAGTKLELK
B4: 62-F7E9, IgG1, Kappa (antibody, V domains shown)
VH: QVQLQQPGAELVKPGASVKLSCKASGYTSTSYWLHWVKQRPGRGLEWIGRIDPNSGETKFNEKFKSQATLTVDKPSSTAYMQLNSLTSEDSAVYYCALYYYGSILFDYWGQGTTLTVSS
VL: ENVLTQSPAIMSASPGEKVTMTCRTSSIISSGFLHWYQQKSGASPKLWIYSTSNLASGVPARFSGSGSGTSYSLTISSVEAEDAATYYCQQYSGHPLTFGAGTKLELK
B5: 66-D1B10, IgG1, Kappa (antibody, V domains shown)
VH: EVRLEESGGGFVQPGGSMKLSCVASGLTFPNHWMNWVRQSPERGLAWVAQIQLKSDNYATRYVESVKGRFTISRDDSESTVYLQMNNLRAEDTGIYYCTTGTDYWGQGTTLTVSS
VL: not shown
B6: 76-F8C6, IgG1, Kappa (antibody, V domains shown)
VH: EVKLEESGGGLVQPGGSMKLSCVASGFTFTNSWMNWVRQSPERGLDWVAQIQLKSDNYATRYVESVKGRFTISRDDSKNSVYLQMNNLRAEDTGIYYCTTGTDYWSQGTTLTVSS
VL: not shown
B7: 65-F3C7, IgG4, Kappa (antibody, V domains shown)
VH: EVRLEESGGGFVQPGGSMKLSCVASGLTFPNHWMNWVRQSLERGLAWVAQIQLKSDNYATRYVESVKGRFTISRDDSKSTVYLQMNNLRPEDTGIYYCTTGTDYWGQGTTLTVSS
VL: not shown
B8: 65-F3C7, IgG1, Kappa (antibody, V domains shown)
VH: EVRLEESGGGFVQPGGSMKLSCVASGLTFPNHWMNWVRQSLERGLAWVAQIQLKSDNYATRYVESVKGRFTISRDDSKSTVYLQMNNLRPEDTGIYYCTTGTDYWGQGTTLTVSS
VL: not shown
B9: 74-H4C6 (4451), IgG1, Kappa (antibody, V domains shown)
VH: EVQLQQSGPELVKPGASVKISCKASGYDFTGYHMNWVKQSPEKSLEWIGEINPITSDKTFNQKFKSKATLTVDRSSSTAYMYLKSLTSEDSAVYYCARRDYGTSLDYWGQGTTLTVSS
VL: DVQITQSPSYLAASPGETITIYCRASKSISKYLAWYQEKPEKTNRLLIYAGSTLHSGIPSRFRGSGSGKDFTLTVSGLEPEDFAMYYCQQHNEYPITFGAGTKLELK
B10: 80-F10A6, IgG4, Kappa (antibody, V domains shown)
VH: EVQLQQSGPVLVNPGASVKISCKASGYSFTGYYMNWVKQSPEKSLEWIGEVNPITGDTTYSQNFKAKTTLTVDRSSSTAYMQLKSLTSEDSAVYYCTRRDYGTSLDYWGQGTTLTVSS
VL: DVQITQSPSYLAASPGETITIHCRASKSISRYLAWYQEKPGKINTLLIYAGSTLHLGIPSRFSGSGSGTDFTLTISSLELEDFAMYYCQQHNEYPITFGAGTKLELK
B11: 63-C5A5, IgG4, Kappa (antibody, V domains shown)
VH: EVNLEESGGGLVQPGGSMEFSCVASGLTFSDHWMNWVRQSPEKGLEWVAQIQLKSDNYAIRYVESVKGRFSISRDDSKSSVYLQMNNLRAEDSGIYYCTTGTDYWGQGTTLTVSS
VL: not shown
B12: 63-C5A5, IgG1, Kappa (antibody, V domains shown)
VH: EVNLEESGGGLVQPGGSMEFSCVASGLTFSDHWMNWVRQSPEKGLEWVAQIQLKSDNYAIRYVESVKGRFSISRDDSKSSVYLQMNNLRAEDSGIYYCTTGTDYWGQGTTLTVSS
VL: not shown
B13: 45-H1E4, IgG1, Kappa (antibody, V domains shown)
VH: QIQLVQSGPELKKPGETVKISCKASGYTFTTYGMSWMKQAPGKGLKWMGWINTYSGVPAYADDFKGRFAFSLDTSASTAYLQINNLKNEDTATYFCARSGYPWSPHSYSTDYWGQGISVTVSS
VL: DVLLTQTPLSLPVSLGDQASISCKSSQSIVHSNGNTYLEWYLQKPGQSPKRLIYKVSNRFSGVPDRFSGSGSGTDFTLKISRVEAEDLGVYYCFQGSHVPWTFGGGTKLEIK
B14: 70-F4E5, IgG1, Kappa (antibody, V domains shown)
VH: EVNLEESGGGLVQPGGSRQLSCVASGLTFSKHWMNWVRQSPDKGLEWVAQIQLKSDNYAIRYVDSVKGRFTISRDDSENTVYLQMNNLRAEDTGIYYCTTGTDYWGQGTTLTVSS
VL: not shown
B15: 70-F4E5, IgG4, Kappa (antibody, V domains shown)
VH: EVNLEESGGGLVQPGGSRQLSCVASGLTFSKHWMNWVRQSPDKGLEWVAQIQLKSDNYAIRYVDSVKGRFTISRDDSENTVYLQMNNLRAEDTGIYYCTTGTDYWGQGTTLTVSS
VL: not shown
B16: Antibody No 1, lead clone of 4451H (HC N35G; LC K27A, T97I) (antibody, V domains shown)
VH: QVQLVQSGAEVKKPGASVKVSCKASGYDFTGYHMGWVRQAPGQGLEWMGEINPITSDKTFNQKFKSRVTMTRDTSISTAYMELSRLRSDDTAVYYCARRDYGTSLDYWGQGTTVTVSS
VL: DIQLTQSPSFLSASVGDRVTITCRASASISKYLAWYQQKPGKAPKLLIYAGSTLHSGIPSRFRGSGSGTEFTLTISSLQPEDFATYYCQQHNEYPIIFGQGTKLEIK
B17: Antibody No 4, lead clone of 4451H (HC N35G; LC K27A) (antibody, V domains shown)
VH: QVQLVQSGAEVKKPGASVKVSCKASGYDFTGYHMGWVRQAPGQGLEWMGEINPITSDKTFNQKFKSRVTMTRDTSISTAYMELSRLRSDDTAVYYCARRDYGTSLDYWGQGTTVTVSS
VL: DIQLTQSPSFLSASVGDRVTITCRASASISKYLAWYQQKPGKAPKLLIYAGSTLHSGIPSRFRGSGSGTEFTLTISSLQPEDFATYYCQQHNEYPITFGQGTKLEIK
B18: Antibody No 2, lead clone of 4451H (HC N35G; LC S30K, T97I) (antibody, V domains shown)
VH: QVQLVQSGAEVKKPGASVKVSCKASGYDFTGYHMGWVRQAPGQGLEWMGEINPITSDKTFNQKFKSRVTMTRDTSISTAYMELSRLRSDDTAVYYCARRDYGTSLDYWGQGTTVTVSS
VL: DIQLTQSPSFLSASVGDRVTITCRASKSIKKYLAWYQQKPGKAPKLLIYAGSTLHSGIPSRFRGSGSGTEFTLTISSLQPEDFATYYCQQHNEYPIIFGQGTKLEIK
B19: Antibody No 7, lead clone of 4451H (HC N35G; LC T97I) (antibody, V domains shown)
VH: QVQLVQSGAEVKKPGASVKVSCKASGYDFTGYHMGWVRQAPGQGLEWMGEINPITSDKTFNQKFKSRVTMTRDTSISTAYMELSRLRSDDTAVYYCARRDYGTSLDYWGQGTTVTVSS
VL: DIQLTQSPSFLSASVGDRVTITCRASKSISKYLAWYQQKPGKAPKLLIYAGSTLHSGIPSRFRGSGSGTEFTLTISSLQPEDFATYYCQQHNEYPIIFGQGTKLEIK
B20: Antibody No 5, lead clone of 4451H (HC N35G; LC S30K) (antibody, V domains shown)
VH: QVQLVQSGAEVKKPGASVKVSCKASGYDFTGYHMGWVRQAPGQGLEWMGEINPITSDKTFNQKFKSRVTMTRDTSISTAYMELSRLRSDDTAVYYCARRDYGTSLDYWGQGTTVTVSS
VL: DIQLTQSPSFLSASVGDRVTITCRASKSIKKYLAWYQQKPGKAPKLLIYAGSTLHSGIPSRFRGSGSGTEFTLTISSLQPEDFATYYCQQHNEYPITFGQGTKLEIK

Biological target: T1, human CD24 on cells (human, UniProt P25063 27-59)
T1 chain (looked up): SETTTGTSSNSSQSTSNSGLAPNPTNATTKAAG
Experiment: cell-based or functional assay

Binder | EC50 of Phagocytosis assay, IgG4, Kappa; HEK293-CD24 [µg/mL] | EC50 of Phagocytosis assay, IgG4, Kappa; MCF-7 [µg/mL] | EC50 of Phagocytosis assay, IgG4, Kappa; NALM6 [µg/mL] | EC50 of Phagocytosis assay, IgG4, Kappa; OVCAR3 [µg/mL] | EC50 of Phagocytosis assay, IgG1, Kappa; HEK293-CD24 [µg/mL] | EC50 of Phagocytosis assay, IgG1, Kappa; MCF-7 [µg/mL] | EC50 of Phagocytosis assay, IgG1, Kappa; NALM6 [µg/mL] | EC50 of Phagocytosis assay, IgG1, Kappa; OVCAR3 [µg/mL]
B1 | 0.37 | 1.02 | 0.55 | 0.51 |  |  |  | 
B2 |  |  |  |  | 0.22 | 0.42 | 0.43 | 8.44
B3 |  |  |  |  | 4.76 | 2.05 | 7.9 | 0.97
B4 |  |  |  |  | 5.15 | 2.08 | 8.62 | 1.63
B5 |  |  |  |  | 7.46 | 0.84 | 2.48 | 0.73
B6 |  |  |  |  | 0.09 | 0.47 | 0.42 | 0.17
B7 | 0.09 | 2.25 | 6.01 | 5.74 |  |  |  | 
B8 |  |  |  |  | 0.75 | 0.4 | 2.01 | 0.23
B9 |  |  |  |  | 0.05 | 0.28 | 0.19 | 0.1
B10 | 0.86 | 2.4 | 1.05 | 0.37 |  |  |  | 
B11 | 0.46 | 24.7 | 6.58 | 1.62 |  |  |  | 
B12 |  |  |  |  | 0.4 | 0.74 | 0.7 | 8.48
B13 |  |  |  |  | 0.29 | 1.02 | 1.25 | 0.59
B14 |  |  |  |  | 0.04 | 0.7 | 0.61 | 0.15
B15 | 0.21 | 0.84 | 0.63 | 5.61 |  |  |  | 

Biological target: T2, Human CD24 (human, UniProt P25063 27-59, limits assumed)
T2 chain (looked up): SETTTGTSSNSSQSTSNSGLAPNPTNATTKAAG
Experiment: SPR affinity ranking, 1:1 binding, analyte conc. 19.71 nM

Binder | Kd [nM] | koff [s⁻¹] | kon [M⁻¹ s⁻¹]
B16 | 10.5 | 0.0132 | 1.26e+06
B17 | 8.97 | 0.0107 | 1.19e+06
B18 | 8.78 | 0.0249 | 2.83e+06
B19 | 16.9 | 0.0141 | 836000
B20 | 7.89 | 0.0345 | 4.37e+06
